Results reported in US20230121197A1, “ANTIBODIES SPECIFICALLY BINDING THE CARBOXYMETHYLATED CATALYTIC SUBUNIT OF PROTEIN PHOSPHATASE 2A” (Medizinische Universität Wien, priority 2020, published 2023).

Experiments:
[1] = biological target: T1, carboxymethylated PP2Ac C-terminal peptide (ac-[…]-CH3) (Homo sapiens, UniProt P67775); assay: Surface plasmon resonance (Biacore T200), steady state analysis, carboxymethylated PP2Ac peptide; assay type: binding
T1 construct: The following 11-mer peptides corresponding to the carboxymethylated or non-methylated carboxy-terminus of PP2A and PP4 catalytic subunits were used as antigens
Procedure: The differential affinity of anti-carboxymethylated PP2Ac antibodies, 7C10-C5 and 2A10, to carboxymethylated PP2A catalytic subunit versus noncarboxymethylated PP2A catalytic subunit was determined by surface plasmon resonance (SPR) on a Biacore T200 (GE Healthcare) at the Core Facility Biomolecular & Cellular Analysis (University of Natural Resources and Life Sciences Vienna BOKU). The affinity of 7C10-C5 for carboxymethylated and noncarboxymethylated catalytic subunit of PP4 (PP4c), a PP2A-related phosphatase, was also determined. […] The KD of the binding of 7C10-C5 (or 2A10) to non-carboxymethylated PP2Ac or PP4c could not be determined because at the highest analyte sample concentration (5000 nM) only very weak binding signals were detected indicating KD values of at least >5000 nM or higher. […]
SPR experiments were performed with the BiacoreT200 instrument (Cytiva). […] The sensorgrams obtained were analyzed with BiacoreT200 Evaluation Software (version 3.1). […]

[2] = biological target: T2, C-terminal PP2Ac peptide Y307F, CGEPHVTRRTPDFFL (15-mer); assay: Western blot of 100 ng BSA crosslinked with peptide
T2 construct: Non-carboxymethylated; Phe in place of Tyr307; Crosslinked to BSA in the Western blot; free or linked to BSA in the ELISA
T2 peptide: CGEPHVTRRTPDFFL
Procedure: 100 ng of BSA crosslinked with peptides (L309: […] (SEQ ID NO:49), Y307F: […] (SEQ ID NO.50), pY307: […]pYFL (SEQ ID NO:51) or meL309: […]-CH₃) (SEQ ID NO:49) was separated by 10% SDS-PAGE and transferred to nitrocellulose membrane (0.2 μm, GE Healthcare). […] The membranes were blocked in 3% non-fatty dry milk (NFDM) in TBS-Tween for 1 h at RT and incubated with single clone hybridoma cell culture supernatant, clone 7C10-C5 diluted 1:100 in 0.5% NFDM in TBS-T (7C10 X63), recombinant single chain variable fragment of antibody 7C10-C5, undiluted (7C10 scFvs), recombinant bivalent single chain variable fragment 7C10-C5, undiluted (7C10 bi-scFvs) or single clone hybridoma cell culture supernatant, clone 1D7 (binding to non-carboxymethylated PP2Ac) 1:100 in 0.5% NFDM in TBS-T o/n at 4° C. After washing 3×5 min in TBS-T, blots incubated with recombinant antibodies were incubated with mouse anti-HA monoclonal antibody 16B12 (recognizing the hemagglutinin (HA) tag on the recombinant antibody), 1:10000 in 0.5% NFDM in TBS-T 2 h at room temperature. After washing 3×5 min in TBS-T, incubation with anti-mouse-HRP coupled secondary antibody for 1 h at RT and 3×10 min washes in TBS-T was performed. ECL was performed with GE Healthcare ECL reagents (RPN2106) mixed 1:3 with Clarity™ Western ECL Substrate, 500 ml #1705061 (Biorad). Signals were detected by exposure of X-ray films. […]

B1: 7C10-C5: α-carboxymethylation specific mouse monoclonal IgG1 antibody from single clone hybridoma 7C10-C5 (DSM ACC3350) (antibody)
heavy: MYRMQLLSCIALSLALVTNSDVQLQESGPGLVKPSQSLSLTCSVTGYSITSGYYWNWIRQFPGNKLEWMGYISYDGSNNYNPSLKNRISITRDTSKNQFFLKLNSVTTEDTATYYCAGRFAYWGQGTLVTVSAAKTTAPSVYPLAPVCGDTTGSSVTLGCLVKGYFPEPVTLTWNSGSLSSGVHTFPAVLQSDLYTLSSSVTVTSSTWPSQSITCNVAHPASSTKVDKKIEPRGPTIKPCPPCKCPAPNLLGGPSVFIFPPKIKDVLMISLSPIVTCVVVDVSEDDPDVQISWFVNNVEVHTAQTQTHREDYNSTLRVVSALPIQHQDWMSGKEFKCKVNNKDLPAPIERTISKPKGSVRAPQVYVLPPPEEEMTKKQVTLTCMVTDFMPEDIYVEWTNNGKTELNYKNTEPVLDSDGSYFMYSKLRVEKKNWVERNSYSCSVVHEGLHNHHTTKSFSRTPGK
light: MDMRVPAQLLGLLLLWLSGARCDVLMTQTPLSLPVSLGDQASISCRSSQSIVHSNGNTYLEWYLQKPGQSPKLLIYKVSNRFSGVPDRFSGSGSGTDFTLKINRVEAEDLGVYYCFQGSHVPWTFGGGTKLEIKADAAPTVSIFPPSSEQLTSGGASVVCFLNNFYPKDINVKWKIDGSERQNGVLNSWTDQDSKDSTYSMSSTLTLTKDEYERHNSYTCEATHKTSTSPIVKSFNRNEC
modifications: Amino acid sequence of the recombinant 7C10-C5 heavy chain; Amino acid sequence of the recombinant 7C10-C5 light chain
With B1 as the molecule, how does the Kd ([1]; SPR steady-state affinity model, carboxymethylated PP2Ac 11-mer peptide (SEQ ID NO:18)) read?
The Kd was at most 20 nM.

And the Rmax ([1]; steady state analysis, PP2A Me peptide, 360 sec contact time, 40 μL/min)?
The Rmax was 25.14 RU.

B2: 7C10-C5 monoclonal antibody (antibody, V domains shown)
VH: DVQLQESGPGLVKPSQSLSLTCSVTGYSITSGYYWNWIRQFPGNKLEWMGYISYDGSNNYNPSLKNRISITRDTSKNQFFLKLNSVTTEDTATYYCAGRFAYWGQGTLVTVSA
VL: DVLMTQTPLSLPVSLGDQASISCRSSQSIVHSNGNTYLEWYLQKPGQSPKLLIYKVSNRFSGVPDRFSGSGSGTDFTLKINRVEAEDLGVYYCFQGSHVPWTFGGGTKLEIK
notes: Used as hybridoma culture supernatant (ELISA, Western blot, IHC) or at 50 µg/mL (SPR); also called 7C10 X63; clone 7C10-C5
Does B2 bind [2]?
Result: no binding (tested: supernatant 1:100)
